Legend:
[1] = system: mixture of Jurkat T lymphocyte and the plasma protein fibrinogen; test: Viscosity/shear rate measurement of Jurkat cells in fibrinogen solution; assay type: cell-based
Excerpt: Since PPIases can catalyze the dynamic rearrangement of the dense ECM polymer network, we speculated that PPIases could also affect the dynamic interaction between cells and the ECM. Probing the influence of transient prolyl isomerization on cell–ECM interaction is difficult. Studying cell adhesion by the treatment of PPIase inhibitors cannot distinguish extracellular and intracellular factors as well as receptor-mediated signaling due to the long assay time. In order to reflect the highly dynamic process, we measured the viscosity of plasma protein solution with cells. Blood is a shear-thinning non-Newtonian fluid, and its viscosity is largely affected by the interaction between cells and plasma proteins, for example, the coagulation process. We investigated whether the catalyzed isomerization could also influence the interaction between blood cells and plasma proteins, thus affecting the viscosity. We performed viscosity/shear rate measurements using a mixture of Jurkat T lymphocyte and the plasma protein fibrinogen.
The machine used for viscosity is the same as for stiffness measurements. To 30 µL of 4 mg mL^−1 fibrinogen, an equal volume of Jurkat cells (8 × 10^7 mL^−1 in PBS, washed two times with PBS before used; Jurkat cells ocupated around 20% of the volume) was added. The mixture was pipetted up and down six times, kept on ice for 10 min, and then transferred to the rheometer plater (25 °C) for measurements. The plate temperature was raised to 37 °C. The measurement was performed by increasing shear rate ramp liner from 100 to 1000 s^−1. Hundred data points were collected during the measurements. For each condition, two independent experiments were performed (Fig. 1c and Supplementary Fig. 3).

[2] = system: Jurkat cells; test: Stability of DNA-conjugated compounds under Jurkat cell treatment (LC/MS); assay type: in vitro ADME; details: CsA-DNA 500 nM, SLF-DNA 1000 nM, two independent experiments
Method: A designed concentration of DNA-conjugated compounds (30 µL in PBS) was incubated with 30 µL of PBS or the cell on ice for 10 min, then 20 min at 37 °C, which is much longer then the viscosity assay time. All the samples were centrifuged at 1000 rpm for 3 min, and then, 30 µL of the supernatant was transferred to MS tube for LC/MS analysis (Supplementary Fig. 4).

[3] = system: Jurkat cells; test: Cellular uptake of TAMRA compounds by Jurkat cells (flow cytometry); assay type: cell-based; details: 100 nM TAMRA compounds, 1 and 24 hours, compared with Cs9-TAMRA
Method: A final concentration of 100 nM DNA-conjugated TAMRA compounds and Cs9TAMRA was incubated with Jurkat cells for 1 h or 24 h, the cells were pelleted by centrifugation at 1000 rpm for 5 min, the pellet was washed one time with fluorescent-activated cell sorting (FACS) buffer (PBS with 1% bovine serum albumin), and resuspended in FACS buffer. BD FACS Canto™ II Flow Cytometer was used to analyze the uptake of these compounds by Jurkat cells (Supplementary Fig. 5).

[4] = PPIase activity of His-CypB immobilized on Ni-NTA silica; assay type: biochemical; details: 25 pmol immobilized on Ni-NTA silica showed a similar activity to 1 pmol free control
Method: Ten microliters of His-CypB (2.5 µM, 2 µM, 1.5 µM, and 1 µM) was incubated with 10 µL of settled Ni-NTA macroporous silica (Ni-NTA Spin Kit; Qiagen) for 30 min at 0 °C. Subsequently, 80 µL of HEPES buffer was added and incubated for another 10 min with gentle shaking. The silica was precipitated by gravity for 10 min. Eighty microliters were taken from the supernatant and measured along with the silica fraction (the remaining 20 µL) for PPIase activity. The amounts of CypB in the wells were 25, 20, 15, and 10 pmol. Additionally, the activity of 10 µL of 100 nM His-CypB in solution was measured. Three independent experiments were performed. The result is shown in Supplementary Fig. 9.

Q: For “CsA-DNA: CsA-conjugated oligonucleotide, 5-amino modifier C6-CTCTTCCGATCTC (chemistry not fully specified)”, which “effect on viscosity of cell/fibrinogen mixture” value ([1]; Jurkat T lymphocyte and fibrinogen, shear rate 100-1000 s^-1) is on record?
A: reduced viscosity

Q: What about the “Viscosity Mean” value ([1]; shear rate 102 s-1) of the same substance?
A: 3.276 mPa·s

Q: What about the “Viscosity Mean” value ([1]; shear rate 112 s-1) of the same substance?
A: 2.725 mPa·s

Q: And the “Viscosity Mean” value ([1]; shear rate 122 s-1)?
A: 2.3889 mPa·s

Q: What about the “Viscosity Mean” value ([1]; shear rate 132 s-1) of the same substance?
A: 2.173 mPa·s

Q: And the “Viscosity Mean” value ([1]; shear rate 142 s-1)?
A: 1.975 mPa·s

Q: What about the “Viscosity Mean” value ([1]; shear rate 152 s-1) of the same substance?
A: 1.931 mPa·s

Q: What about the “Viscosity Mean” value ([1]; shear rate 162 s-1) of the same substance?
A: 1.858 mPa·s

Q: And the “Viscosity Mean” value ([1]; shear rate 173 s-1)?
A: 1.71 mPa·s

Q: And the “Viscosity Mean” value ([1]; shear rate 183 s-1)?
A: 1.682 mPa·s

Q: And the “Viscosity Mean” value ([1]; shear rate 193 s-1)?
A: 1.63 mPa·s

Q: What about the “Viscosity Mean” value ([1]; shear rate 203 s-1) of the same substance?
A: 1.558 mPa·s

Q: And the “Viscosity Mean” value ([1]; shear rate 253 s-1)?
A: 1.438 mPa·s

Q: And the “Viscosity Mean” value ([1]; shear rate 263 s-1)?
A: 1.4013 mPa·s

Q: And the “Viscosity Mean” value ([1]; shear rate 284 s-1)?
A: 1.361 mPa·s

Q: And the “Viscosity Mean” value ([1]; shear rate 304 s-1)?
A: 1.331 mPa·s

Q: And the “Viscosity Mean” value ([1]; shear rate 334 s-1)?
A: 1.301 mPa·s

Q: What about the “Viscosity Mean” value ([1]; shear rate 344 s-1) of the same substance?
A: 1.29 mPa·s

Q: And the “Viscosity Mean” value ([1]; shear rate 354 s-1)?
A: 1.29 mPa·s

Q: What about the “Viscosity Mean” value ([1]; shear rate 364 s-1) of the same substance?
A: 1.269 mPa·s

Q: And the “Viscosity Mean” value ([1]; shear rate 374 s-1)?
A: 1.245 mPa·s

Q: And the “Viscosity Mean” value ([1]; shear rate 384 s-1)?
A: 1.237 mPa·s

Q: What about the “Viscosity Mean” value ([1]; shear rate 395 s-1) of the same substance?
A: 1.237 mPa·s

Q: What about the “Viscosity Mean” value ([1]; shear rate 415 s-1) of the same substance?
A: 1.212 mPa·s

Q: And the “Viscosity Mean” value ([1]; shear rate 425 s-1)?
A: 1.198 mPa·s

Q: And the “Viscosity Mean” value ([1]; shear rate 475 s-1)?
A: 1.142 mPa·s

Q: What about the “Viscosity Mean” value ([1]; shear rate 526 s-1) of the same substance?
A: 1.138 mPa·s

Q: What about the “Viscosity Mean” value ([1]; shear rate 556 s-1) of the same substance?
A: 1.137 mPa·s

Q: And the “Viscosity Mean” value ([1]; shear rate 576 s-1)?
A: 1.139 mPa·s

Q: What about the “Viscosity Mean” value ([1]; shear rate 909 s-1) of the same substance?
A: 0.9613 mPa·s

Q: And the “Viscosity Mean” value ([1]; shear rate 919 s-1)?
A: 1.096 mPa·s

Q: And the “Viscosity Mean” value ([1]; shear rate 929 s-1)?
A: 0.9906 mPa·s

Q: And the “Viscosity Mean” value ([1]; shear rate 939 s-1)?
A: 0.9737 mPa·s

Q: What about the “Viscosity Mean” value ([1]; shear rate 980 s-1) of the same substance?
A: 0.896 mPa·s

Q: What about the “Viscosity Mean” value ([1]; shear rate 990 s-1) of the same substance?
A: 0.87 mPa·s

Q: And the “Viscosity Mean” value ([1]; shear rate 1000 s-1)?
A: 0.9112 mPa·s

Q: What about the “area of UV absorbance at 260 nm in supernatant” value ([2]; Jurkat cell 4 X 107/mL treatment) of the same substance?
A: 3054±270

Q: What about the “area of UV absorbance at 260 nm in supernatant” value ([2]; PBS control) of the same substance?
A: 2218±11

Q: What about the “cell entry / uptake by Jurkat cells” value [3] of the same substance?
A: do not enter into cells

Q: For “His-CypB: recombinant His-tagged cyclophilin B, immobilized on Ni-NTA macroporous silica”, which “catalytic activity of immobilized enzyme versus free enzyme in solution” value [4] is on record?
A: diminished catalytic activity

Source: PMC6370856, “Peptidyl prolyl cis/trans isomerase activity on the cell surface correlates with extracellular matrix development” (Communications Biology, 2019)
